Measurements as given in patent US9976167B2, “Group of glycosyltransferases and use thereof” (Shanghai Institutes For Biological Sciences, Chinese …, priority 2012, dated 2018).

What was measured:
[1] = test system: Morris liver cancer cells; conditions: Morris liver cancer cells (rats); cited from earlier work
lung cancer cells 3LL = lung cancer cells 3LL (mice); cited from earlier work
B-16 melanoma cells = B-16 melanoma cells (mice); cited from earlier work
HeLa cells = HeLa cells (human); cited from earlier work
prostate cancer cells = conditions: cited from earlier work
osteoclasts = conditions: cited from earlier work
[2] = Glycosyltransfering reaction with crude enzyme, substrate F2; format: biochemical; conditions: cell lysate of recombinant yeasts, method of Example 4
Protocol: (§1) According to the method as in Example 4, the cell lysate of recombinant yeasts expressing gGT13 and gGT30 were used to catalyze PPD and PPT.
(§2) The lysate supernatant of the recombinant yeast expressing empty vectors was used as control. The reaction was conducted under 35° C. for 12 hrs, and then stopped by adding 100 μL of butanol. The product were extracted, dried in vacuum, and dissolved in methanol.
(§3) The glycosyltransfering reactions of ginsenosides Rh2 and F2 were catalyzed by using the lysate supernatant of the recombinant yeasts expressing 3GT1, 3GT2, 3GT3 and 3GT4 as crude enzymes. The 100 μL reaction system is shown as Table 3. The reaction was conducted under 35° C. for 12 hrs, and then stopped by adding 100 μL of butanol. The product were extracted, dried in vacuum, and dissolved in methanol.

[3] = Glycosyltransfering reaction with crude enzyme, substrate Rg1; format: biochemical; conditions: cell lysate of recombinant yeasts, method of Example 4
[4] = Glycosyltransfering reaction with crude enzyme, substrate PPT; format: biochemical; conditions: cell lysate of recombinant yeasts, method of Example 4
[5] = Glycosyltransfering reaction with crude enzyme, substrate F1; format: biochemical; conditions: cell lysate of recombinant yeasts, method of Example 4
Protocol: as §1
as §2, with “lysis” for “lysate”, “of” for “of the”, “E. coli” for “yeast”, “control. The 100 μL reaction system is shown as Table 3.” for “control.”, “hrs,” for “hrs, and”

[6] = Glycosyltransfering reaction with crude enzyme, substrate Rh2; format: biochemical; conditions: cell lysate of recombinant yeasts, method of Example 4
Protocol: (§4) The lysate supernatant of the recombinant yeasts expressing the empty vector was used as control.
(§5) The reaction was conducted under 35° C. for 12 hrs, then stopped by adding 100 μL of butanol. The product were extracted, dried in vacuum, and dissolved in methanol.
(§6) The reaction products were first detected by thin layer chromatography (TLC). […]
as §2, §3

[7] = Glycosyltransfering reaction with crude enzyme, substrate PPD; format: biochemical; conditions: cell lysate of recombinant yeasts, method of Example 4
[8] = Glycosyltransfering reaction with crude enzyme, substrate Rh1; format: biochemical; conditions: cell lysate of recombinant yeasts, method of Example 4
Protocol: as §4, §5, §6

[9] = Glycosyltransfering reaction with crude enzyme, substrate CK; format: biochemical; conditions: cell lysate of recombinant yeasts, method of Example 4
Protocol: as §1
as §3, with “ginsenosides” for “ginsenosides Rh2”, “ginsengenins” for “F2”, “lysis” for “lysate”, “enzymes. The lysis supernatant of recombinant E. coli expressing empty vectors was used as control.” for “enzymes.”, “hrs,” for “hrs, and”

[10] = Glycosyltransfering reaction with crude enzyme, substrate Rg3; format: biochemical; conditions: cell lysate of recombinant yeasts, method of Example 4
Protocol: as §4, §5, §6

| Molecule | inhibition of proliferation [1] | inhibition of proliferation (lung cancer cells 3LL) | inhibition of proliferation (B-16 melanoma cells) | inhibition of proliferation (HeLa cells) | inhibition of prostate cancer cells (prostate cancer cells) | cytotoxicity to osteoclasts (osteoclasts) | inhibition of the generation of osteoclasts (osteoclasts) | conversion of F2 [2] | conversion of Rg1 [3] | conversion of PPT [4] | conversion of F1 [5] | conversion of Rh2 [6] | conversion of PPD [7] | conversion of Rh1 [8] | conversion of CK [9] | conversion of Rg3 [10] |
| --- | --- | --- | --- | --- | --- | --- | --- | --- | --- | --- | --- | --- | --- | --- | --- | --- |
| CC(C)=CCC[C@](C)(O)[C@H]1CC[C@]2(C)[C@@H]1[C@H](O)C[C@@H]1[C@@]3(C)CC[C@H](O[C@@H]4O[C@H](CO)[C@@H](O)[C@H](O)[C@H]4O)C(C)(C)[C@@H]3CC[C@]12C [ginsenoside Rh2, 3-O-β-(D-glucopyranosyl)-20(S)-protopanaxadiol] | can inhibit the proliferation | can inhibit the proliferation | can inhibit the proliferation | can inhibit the proliferation | significantly inhibit | strong cytotoxicity | poorly inhibits |  |  |  |  |  |  |  |  |  |
| gGT13: glycosyltransferase protein with 476 amino acids, SEQ ID NO.: 4 (protein, Panax ginseng; gGT13) MGAELILIPSPGVGHLVSTVEIAKLLISRDERLSITVLVMKFSHDTGVTAYTRSLQKDAPNRIVFVDLPQNESLISSPKSFFTSFIESQTSPVRDSVRQIVSRSDSNKLAGFVIDMFCTPMIDVANEFGVPTYVFFTSGAAFLGLQFYHLSLSDEHNQDLTEYKDTDVELSIPSFINPVPAKVLPSVILNKEGSTMLQSISRRFKEAKAILVNTFAELEPHAIKALGDNCKIPPIYPVGPIINLKNKEGTTQNHSSEDGIISWLDNQPPSSVVFLCFGSFGSFDEGQVREIANGLEQSGQRFLWSLRRRPEKMELPKDYENPEEVLPEGFIERTSGMGKVIGWAPQTAILSHPAVGGFVSHCGWNSTLESIWCGVPMATWPIYAEQQINAFELVKELGMAVEIKMDYREDYIFAPENNLVVTADQIEKGMRCLMMDGESEMRKKVEEMKEKSRMAMVKGGSSYISLGHFIEDVMRN |  |  |  |  |  |  |  | neither converted | neither converted | neither converted | neither converted | neither converted | neither converted | neither converted | neither converted | neither converted |
| gGT30: glycosyltransferase protein with 451 amino acids, SEQ ID NO.: 6 (protein, Panax ginseng; gGT30) MATQKCFRVLVFPWLAHGHISPFLELARKLIEKGNFFIYFCSTPINLISIKKKLSGDDHQNYTKSIQLVEHNLPTLPQLPPHYHTTDGLPPNLNPTLRKAFEMSKLSFPNTLNTLKPDLLICDDLFQWPEIVASSHGVPVVRFQTCSVTAASFLAHIFTNPDVTYPFPAIYLHEYETDQIRRCVDAVFESGREESRNLLVVNTSKAIEEKYFYYYSLLRGNTKIMPVGPLIQQAPNGDEDMKVIEWLDKKDPCSTVFVSFGSEYFMQKEEVEEMAHGLELSNVNFIWVFRAPVGAEKVKLPLGFVERVGGRGIVMEGWAPQARILGHSSIGGFVSHCGWNSVLETINFGVPIIGMPMKFEQPMNARLLSELGVCVEIVGDETRRFGREEVGNVIREVVGGKIGDDLRRKVKELGAKIKEKQEEEMDDVLDELVQICNKKKRTVVHHHHHH |  |  |  |  |  |  |  | neither converted | neither converted | neither converted | neither converted | neither converted | neither converted | neither converted | neither converted | neither converted |
